Source: patent publication CN116262786A (NANJING RONGJIEKANG BIOTECHNOLOGY CO LTD, dated 2023)

B1: 单域抗体2D8 (VHH)
VHH: QVQLVESGGGSVQAGGSLRLSCAASDYTYRRYCMGWFRQAPGKEREKVAAIYLGDGTTYYTDSVKGRFTISQENAKNTIYLQMNNLKPEDTAMYYCAADRSGCSVTWSYSAFEDWGQGTQVTVSS
notes: Prokaryotic (E. coli) VHH from pMECS-VHH; also called VHH8; not shown: tags from vector pMECS (detected with anti-HA, purified on nickel column)
B2: 单域抗体3H11 (VHH)
VHH: QVQLVESGGGSVQTGGSPRLSCAVSGHTYSRLSMGWFRQAPGKEREGVAGIYTGGPSGPMTYYADSVKGRFTISQDNAQRTVYLQMNSLKPEDTAMYYCAATPQFLIGSGLLRPDKYNSWGQGTQVTVSS
notes: Prokaryotic (E. coli) VHH from pMECS-VHH; also called VHH15; not shown: tags from vector pMECS (detected with anti-HA, purified on nickel column)
B3: 单域抗体3B3 (VHH)
VHH: QVQLVESGGGSVQAGGSLRLSCAASGYTYRRLSMGWFRQAPGKEREAVGGIYTGESMTYYADSVRGRFTISQDNAQNTVYLQMNSLKPEDTATYYCAATPQFLIGSGLLRPDKYDSWGQGTQVTVSS
notes: Prokaryotic (E. coli) VHH from pMECS-VHH; also called VHH4; not shown: tags from vector pMECS (detected with anti-HA, purified on nickel column)
B4: 单域抗体4E11 (VHH)
VHH: QVQLVESGGGSVQAGGSLRLSCAVSGYTYSSNSMGWFRQAPGKEREGVAAIYTGGGSTYYADSVKGRFTISQDNAKNTVYLQMNSLKPEDTAMYYCAAGGPTWYDGSWSRGDEYTYWGQGTQVTVSS
notes: Prokaryotic (E. coli) VHH from pMECS-VHH; also called VHH18; not shown: tags from vector pMECS (detected with anti-HA, purified on nickel column)
B5: 单域抗体4B10 (VHH)
VHH: QVQLVESGGGLVQAGGSLRLSCTASGFTFDDYAMGWFRQAPGKEREGVSCISWNGGSTFYADSVKGRFTIVRDNAKNTVYLEMNSLKPEDTAMYYCAALAYCSGGHWSPGDLSGGYWGQGTQVTVSS
notes: Prokaryotic (E. coli) VHH from pMECS-VHH; also called VHH14; not shown: tags from vector pMECS (detected with anti-HA, purified on nickel column)
B6: 单域抗体2E5 (VHH)
VHH: QVQLVESGGGSVQAGGSLRLSCAASGYPYHRVSMGWFRQAPGKEREGVAGIYTGGLYTGGSMTYYADSVKGRFTISQDNARNTVYLQMNSLKPEDTAMYYCAATPQFLIGSGLLRPDKYNSWGQGTQVTVSS
notes: Prokaryotic (E. coli) VHH from pMECS-VHH; also called VHH11; not shown: tags from vector pMECS (detected with anti-HA, purified on nickel column)
B7: 单域抗体1D11 (VHH)
VHH: QVQLVESGGGSVQAGGSLRLSCAASGDTYSSACMDWFRQAPGKEREGVAGISSGGSTYYADSVKGRFTISRDNAKNTLYLQMNSLKPEDTAMYYCAARRVGRIPCRTMLPGLQDYWGQGTQVTVSS
notes: Prokaryotic (E. coli) VHH from pMECS-VHH; also called VHH2; not shown: tags from vector pMECS (detected with anti-HA, purified on nickel column)
B8: 2D8-hFC1 (Fc fusion, human, not shown: a dimerising Fc or GST; small tags and cut ends)
chain: B1 VHH
notes: domain: Fc区段 (铰链区 Hinge, CH2和CH3区); VHH cloned into vector RJK-V4-hFC; also called VHH-hFc 2D8; 单域抗体2D8的Fc融合抗体
B9: 3H11-hFC1 (Fc fusion, human, not shown: a dimerising Fc or GST; small tags and cut ends)
chain: B2 VHH
notes: domain: Fc区段 (铰链区 Hinge, CH2和CH3区); VHH cloned into vector RJK-V4-hFC; also called VHH-hFc 3H11; 单域抗体3H11的Fc融合抗体
B10: 3B3-hFC1 (Fc fusion, human, not shown: a dimerising Fc or GST; small tags and cut ends)
chain: B3 VHH
notes: domain: Fc区段 (铰链区 Hinge, CH2和CH3区); VHH cloned into vector RJK-V4-hFC; also called VHH-hFc 3B3; 单域抗体3B3的Fc融合抗体
B11: 1D11-hFC1 (Fc fusion, human, not shown: a dimerising Fc or GST; small tags and cut ends)
chain: B7 VHH
notes: domain: Fc区段 (铰链区 Hinge, CH2和CH3区); VHH cloned into vector RJK-V4-hFC; also called VHH-hFc 1D11; 单域抗体1D11的Fc融合抗体
B12: 4E11-hFC1 (Fc fusion, human, not shown: a dimerising Fc or GST; small tags and cut ends)
chain: B4 VHH
notes: domain: Fc区段 (铰链区 Hinge, CH2和CH3区); VHH cloned into vector RJK-V4-hFC; also called VHH-hFc 4E11; 单域抗体4E11的Fc融合抗体
B13: 4B10-hFC1 (Fc fusion, human, not shown: a dimerising Fc or GST; small tags and cut ends)
chain: B5 VHH
notes: domain: Fc区段 (铰链区 Hinge, CH2和CH3区); VHH cloned into vector RJK-V4-hFC; also called VHH-hFc 4B10; 单域抗体4B10的Fc融合抗体
B14: 2E5-hFC1 (Fc fusion, human, not shown: a dimerising Fc or GST; small tags and cut ends)
chain: B6 VHH
notes: domain: Fc区段 (铰链区 Hinge, CH2和CH3区); VHH cloned into vector RJK-V4-hFC; also called VHH-hFc 2E5; 单域抗体2E5的Fc融合抗体

Target: T1, 人源重组FOLR1蛋白 (人源FOLR1重组胞外结构域蛋白) (human, UniProt P15328 25-233)
T1 construct: range 25-233; a tag is not mentioned; also called FOLR1重组蛋白; 人FOLR1
Assay: ELISA, coated FOLR1 1 μg/mL, purified prokaryotic VHH titrated from 2 μg/mL, anti-HA-HRP

T1 sequence (P15328 25-233 limits assumed): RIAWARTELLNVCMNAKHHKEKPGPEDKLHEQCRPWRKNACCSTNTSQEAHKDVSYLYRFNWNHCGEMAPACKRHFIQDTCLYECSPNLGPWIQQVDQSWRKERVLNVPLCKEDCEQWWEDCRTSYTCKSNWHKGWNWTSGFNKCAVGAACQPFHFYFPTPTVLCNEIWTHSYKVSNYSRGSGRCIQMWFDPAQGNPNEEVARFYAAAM

Binder | binding result
B1 | binds
B2 | binds
B3 | binds
B4 | binds
B5 | binds
B6 | binds

Target: T1, 人源重组FOLR1蛋白 (人源FOLR1重组胞外结构域蛋白)
Assay: ELISA of crude periplasmic extract on coated FOLR1 recombinant protein, anti-HA-HRP; positive = OD more than 5 times control

Binder | binding result
B7 | binds

Target: T2, 小鼠FOLR1 (小鼠 (mouse), UniProt P35846 25-232, limits assumed)
T2 construct: also called mouse FOLR1
Assay: ELISA, coated FOLR1 of each species 1 μg/mL, VHH-hFc titrated from 2 μg/mL, goat anti-human IgG-HRP

T2 sequence (P35846 25-232 limits assumed): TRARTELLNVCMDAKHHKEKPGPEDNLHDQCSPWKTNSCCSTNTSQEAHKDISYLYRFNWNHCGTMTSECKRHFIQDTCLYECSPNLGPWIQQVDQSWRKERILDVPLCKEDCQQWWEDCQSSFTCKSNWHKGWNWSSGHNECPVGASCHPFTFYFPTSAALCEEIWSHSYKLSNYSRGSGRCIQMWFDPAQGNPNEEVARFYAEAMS

Binder | binding result
B8 | binds
B9 | binds
B10 | binds
B11 | binds
B12 | binds
B13 | binds
B14 | binds

Target: T1, 人源重组FOLR1蛋白 (人源FOLR1重组胞外结构域蛋白)
Assay: as above

Binder | binding result
B8 | binds
B9 | binds
B10 | binds
B11 | binds
B12 | binds
B13 | binds
B14 | binds
